Data reported in publication PMC6750902.
Blank lines part the entries; values can stand above or below the molecule they belong to.

Assays:
[1] = molecular target: Anti-CRISPR protein AcrIIC2; test: AUC
[2] = molecular target: Neisseria meningitidis Cas9 (NmeCas9), full length (Neisseria meningitidis) (UniProt C9X1G5); test: SEC + other: quantitative SDS-PAGE against standards
[3] = molecular target: T1, NmeCas9 (Neisseria meningitidis, UniProt C9X1G5 1-1082); test: DRaCALA
T1 sequence: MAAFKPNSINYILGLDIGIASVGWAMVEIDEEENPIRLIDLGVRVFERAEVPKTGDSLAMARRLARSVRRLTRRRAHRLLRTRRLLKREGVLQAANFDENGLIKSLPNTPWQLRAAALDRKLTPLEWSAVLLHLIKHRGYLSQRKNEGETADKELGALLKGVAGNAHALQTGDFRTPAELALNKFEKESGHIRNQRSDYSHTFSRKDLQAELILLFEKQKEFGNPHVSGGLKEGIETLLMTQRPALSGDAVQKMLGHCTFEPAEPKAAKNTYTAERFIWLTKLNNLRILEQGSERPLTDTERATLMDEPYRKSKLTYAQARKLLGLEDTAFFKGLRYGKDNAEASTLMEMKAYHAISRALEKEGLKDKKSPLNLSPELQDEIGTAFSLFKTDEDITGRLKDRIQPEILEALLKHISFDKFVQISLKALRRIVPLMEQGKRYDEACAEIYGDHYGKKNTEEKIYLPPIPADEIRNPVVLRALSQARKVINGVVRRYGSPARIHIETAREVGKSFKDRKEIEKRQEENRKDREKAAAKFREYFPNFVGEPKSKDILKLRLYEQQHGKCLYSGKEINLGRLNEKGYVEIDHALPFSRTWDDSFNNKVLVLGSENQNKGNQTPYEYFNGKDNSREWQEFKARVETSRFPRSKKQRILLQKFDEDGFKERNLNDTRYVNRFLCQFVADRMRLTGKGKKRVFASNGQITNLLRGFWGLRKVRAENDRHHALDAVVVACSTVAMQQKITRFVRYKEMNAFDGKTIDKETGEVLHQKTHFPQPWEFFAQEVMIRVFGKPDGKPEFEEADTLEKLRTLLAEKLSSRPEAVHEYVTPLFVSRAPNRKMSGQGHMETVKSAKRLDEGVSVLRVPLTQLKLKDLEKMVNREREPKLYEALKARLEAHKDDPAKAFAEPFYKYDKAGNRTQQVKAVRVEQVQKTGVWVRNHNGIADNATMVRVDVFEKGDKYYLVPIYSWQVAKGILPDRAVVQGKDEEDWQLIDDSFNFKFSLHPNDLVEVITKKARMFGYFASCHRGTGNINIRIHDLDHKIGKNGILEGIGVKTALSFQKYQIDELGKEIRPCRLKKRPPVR

stoichiometry N [1]: 2
Molecule: Anti-CRISPR protein AcrIIC2 (natural protein)

stoichiometry N (AcrIIC3 per Cas9 (printed as 2:2)) [2]: 1
Molecule: Anti-CRISPR protein AcrIIC3 (natural protein)

B1: NmeCas9 sgRNA, 94 nt (binding assay) (structured_RNA)
RNA: GGCUCCUCAGAUGUAGUAUUCAGAGUUGUAGCUCCCUUUCUGAAAAGAACCGUUGCUACAAUAAGGCCGUCUGAAAAGAUGUGCCGCAACGCUC
Kd [3]: 1.66 nM
